Measurements: patent US20220204624A1 (Xencor, published 2022)
Numbering of substitutions follows the chain as printed. Each block holds one binder with its values, some of them ahead of it.

Assays:
His-tagged human PD-1 [1] = molecular target: T1, His-tagged human PD-1 (human, UniProt Q15116 25-167, limits assumed); experiment: Biacore (SPR), mAb captured on Protein A chip, histidine-tagged human PD-1 as analyte
T1 construct: also called PD-1-His; huPD-1-His; not shown: histidine tag

His-tagged human PD-1 [2] = molecular target: T1, His-tagged human PD-1; experiment: Octet, His-tagged PD-1 as analyte
His-tagged human PD-1 [3] = molecular target: T1, His-tagged human PD-1; experiment: Octet, antibody on AHC biosensors, His-tagged PD-1 as analyte
His-tagged human PD-1 [4] = molecular target: T1, His-tagged human PD-1; experiment: Octet, antibody on AHC biosensors, His-tagged human PD-1 as analyte
cynomolgus PD-1 = molecular target: T2, cynomolgus PD-1 (cynomolgus, UniProt B0LAJ3 25-170); experiment: Octet (BLI), global fit, 1:1 binding model
T2 construct: also called cyno PD-1; not shown: carrier of the soluble construct (His tag or Fc)

cynomolgus CTLA-4 = cynomolgus CTLA-4 (cynomolgus, UniProt G7PL88 36-161); experiment: Octet (BLI), global fit, 1:1 binding model
human CTLA-4 = human CTLA-4 (human, UniProt P16410 36-161, limits assumed); experiment: Octet (BLI), global fit, 1:1 binding model
human PD-1 = human PD-1 (human, UniProt Q15116 25-167, limits assumed); experiment: Octet (BLI), global fit, 1:1 binding model
human PD-1, sequence (Q15116 25-167 limits assumed): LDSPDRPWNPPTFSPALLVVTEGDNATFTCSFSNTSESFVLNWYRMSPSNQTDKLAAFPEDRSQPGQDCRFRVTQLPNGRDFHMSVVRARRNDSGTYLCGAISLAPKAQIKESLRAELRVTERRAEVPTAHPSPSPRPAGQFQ

T1 sequence (Q15116 25-167 limits assumed): as above
human CTLA-4, sequence (P16410 36-161 limits assumed): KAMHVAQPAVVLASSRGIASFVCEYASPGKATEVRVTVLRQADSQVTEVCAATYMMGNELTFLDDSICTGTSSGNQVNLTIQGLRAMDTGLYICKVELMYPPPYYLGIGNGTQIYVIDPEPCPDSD
cynomolgus CTLA-4, sequence (G7PL88 entry or part of it limits assumed, form in doubt): as the sequence (P16410 36-161 limits assumed) above, with S14N, L106M counted along it
T2 sequence (B0LAJ3 entry or part of it limits assumed, form in doubt): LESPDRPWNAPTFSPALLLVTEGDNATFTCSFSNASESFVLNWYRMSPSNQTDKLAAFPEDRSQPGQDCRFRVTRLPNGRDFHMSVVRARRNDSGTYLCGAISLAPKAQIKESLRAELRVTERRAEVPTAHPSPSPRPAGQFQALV

Kd (His-tagged human PD-1 [1]): 8.6 nM | Kd (His-tagged human PD-1 [2]): ~18 nM | Kd (His-tagged human PD-1 [3]): 15 to 19 nM
B1: XENP22553 (antibody, V domains shown)
VH: QIQLVQSGSELKKPGASVKVSCKASGYTFTHYGMNWVRQAPGQGLEWMGWINTYTGEPTYADGFTGRFVFSLDTSVSTAYLQISSLKAEDTAVYFCARDYYGSSPYWGQGTLVTVSS
VL: DVLMTQSPDSLAVSLGERATINCKSSQSIVHSNGNTYLEWYQQKPGQSPKLLIYKVSNRFSGVPDRFSGSGSGTDFTLTISSLQAEDVAVYYCFQGSHVPNTFGGGTKVEIK

Kd (His-tagged human PD-1 [4]): 333 nM
B2: XENP26928 (antibody, V domains shown)
VH: B1 VH
VL: B1 VL with N33E

Kd (cynomolgus PD-1): 5.5 nM | Kd (cynomolgus CTLA-4): ~23 nM | Kd (human CTLA-4): ~4.1 nM | Kd (human PD-1): 1.4 nM
B3: XmAb20717 (bispecific antibody)
chain 1: not shown
chain 2: EIVLTQSPATLSASPGERVTLTCRASQSVGNDVAWYQQKPGQAPRLLINYASHRYTGVPDRFTGSGYGTEFTLTISSVQSEDFGVYYCQQDFSSPRTFGGGTKVEIKGKPGSGKPGSGKPGSGKPGSEVQLVESGGGLVKPGGSLRLSCVASGFTFSNYWMNWVRQAPGKGLEWVAEIRLYSNNYATHYAESVKGRFTISRDDSKSTLYLQMNNLKTEDTGVYYCTRYYGNYGGYFDVWGRGTLVTVSSEPKSSDKTHTCPPCPAPPVAGPSVFLFPPKPKDTLMISRTPEVTCVVVDVKHEDPEVKFNWYVDGVEVHNAKTKPREEQYNSTYRVVSVLTVLHQDWLNGKEYKCKVSNKALPAPIEKTISKAKGQPREPQVYTLPPSREQMTKNQVKLTCLVKGFYPSDIAVEWESNGQPENNYKTTPPVLDSDGSFFLYSKLTVDKSRWQQGNVFSCSVLHEALHSHYTQKSLSLSPGK
chain 3: not shown
